The text below walks through data of article doi:10.1101/2024.06.17.599268 (bioRxiv, 2024).

Residue numbers refer to the chain shown, from its start. Numbers in names are those of the source.

To fix the notation:
B1: bMERB_(S960D) (domain or fragment)
chain: KEEEMKRFCKAQTIQRRLNEIEAALRELEAEGVKLELALRRQDSSPEQQKKLWVGQLLQLVDKKNSLVAEEAELMITVQELNLEEKQWQLDQELRGYMNREENLKTAADRQAEDQVLRKLVDLVNQRDALIRFQEERRLSELALGTGAQG
B2: bMERB_(V978A_V985A) (domain or fragment)
chain: B1 chain with D43S, V61A, V68A
B3: Rab8a_(1-176) (natural protein)
chain: MAKTYDYLFKLLLIGDSGVGKTCVLFRFSEDAFNSTFISTIGIDFKIRTIELDGKRIKLQIWDTAGQERFRTITTAYYRGAMGIMLVYDITNEKSFDNIRNWIRNIEEHASADVEKMILGNKCDVNDKRQVSKERGEKLALDYGIKFMETSAKANINVENAFFTLARDIKAKMDKK

In test [1] the target is B3. Nature of the test: ITC. Background: Isothermal titration calorimetry measures the heat released or taken up as one component is titrated into another.
Test [2] deals with T1, Rab10_(1-175) (human, UniProt P61026 1-175).
T1 sequence: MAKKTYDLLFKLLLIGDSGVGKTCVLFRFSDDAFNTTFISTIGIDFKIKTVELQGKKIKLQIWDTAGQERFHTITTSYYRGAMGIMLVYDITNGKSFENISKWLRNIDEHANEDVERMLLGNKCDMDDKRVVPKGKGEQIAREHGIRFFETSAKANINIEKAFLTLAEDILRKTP
Description: ITC.

Test [3] has as its target T2, Rab15_(1-176) (human, UniProt P59190 1-176).
T2 sequence: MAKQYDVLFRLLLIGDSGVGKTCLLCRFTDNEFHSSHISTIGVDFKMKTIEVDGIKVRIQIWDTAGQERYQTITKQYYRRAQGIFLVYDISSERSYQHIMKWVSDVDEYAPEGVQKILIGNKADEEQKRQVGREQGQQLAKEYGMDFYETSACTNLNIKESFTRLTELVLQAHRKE
Nature of the test: ITC.

In test [4] the target is T3, Mical1 MO-CH-LIM (residues 1-781) (human, UniProt Q8TDZ2 1-781).
T3 sequence: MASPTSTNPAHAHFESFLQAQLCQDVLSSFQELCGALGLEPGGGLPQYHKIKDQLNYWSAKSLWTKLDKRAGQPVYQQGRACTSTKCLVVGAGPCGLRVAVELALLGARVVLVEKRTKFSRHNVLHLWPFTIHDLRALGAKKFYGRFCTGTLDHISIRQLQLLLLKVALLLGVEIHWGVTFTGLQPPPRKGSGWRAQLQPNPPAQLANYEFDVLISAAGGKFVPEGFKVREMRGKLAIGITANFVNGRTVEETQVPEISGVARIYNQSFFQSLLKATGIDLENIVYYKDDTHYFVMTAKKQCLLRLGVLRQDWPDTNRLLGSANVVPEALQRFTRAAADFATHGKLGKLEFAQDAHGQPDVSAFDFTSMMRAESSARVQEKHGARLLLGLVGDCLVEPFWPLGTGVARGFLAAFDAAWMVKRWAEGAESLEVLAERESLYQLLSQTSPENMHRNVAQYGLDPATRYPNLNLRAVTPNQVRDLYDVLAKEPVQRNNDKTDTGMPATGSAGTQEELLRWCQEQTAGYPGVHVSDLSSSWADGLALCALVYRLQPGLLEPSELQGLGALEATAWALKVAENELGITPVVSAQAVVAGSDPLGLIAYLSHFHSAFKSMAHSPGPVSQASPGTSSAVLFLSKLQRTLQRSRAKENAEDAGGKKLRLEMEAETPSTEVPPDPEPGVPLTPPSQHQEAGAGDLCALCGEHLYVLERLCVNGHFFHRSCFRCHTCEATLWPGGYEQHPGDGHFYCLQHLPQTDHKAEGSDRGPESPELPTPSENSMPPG
Nature of the test: ITC.

Test [5] deals with B3. Description: SEC.
Test [6] deals with T1, Rab10_(1-175). Description: SEC. (In gel filtration, larger molecules generally elute earlier.)
For a further test, the target named is T4, Rab13_(1-176) (human, UniProt P51153 1-176).
T4 sequence: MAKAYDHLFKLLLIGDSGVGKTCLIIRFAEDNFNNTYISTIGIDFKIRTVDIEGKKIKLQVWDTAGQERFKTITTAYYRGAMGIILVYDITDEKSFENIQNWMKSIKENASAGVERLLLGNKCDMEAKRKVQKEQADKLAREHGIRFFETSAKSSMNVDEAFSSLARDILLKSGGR
Description: SEC.

In test [7] the target is T2, Rab15_(1-176). Description: SEC.
The target in the next test is T5, full-length Mical1 (human, UniProt Q8TDZ2 1-1067).
T5 sequence: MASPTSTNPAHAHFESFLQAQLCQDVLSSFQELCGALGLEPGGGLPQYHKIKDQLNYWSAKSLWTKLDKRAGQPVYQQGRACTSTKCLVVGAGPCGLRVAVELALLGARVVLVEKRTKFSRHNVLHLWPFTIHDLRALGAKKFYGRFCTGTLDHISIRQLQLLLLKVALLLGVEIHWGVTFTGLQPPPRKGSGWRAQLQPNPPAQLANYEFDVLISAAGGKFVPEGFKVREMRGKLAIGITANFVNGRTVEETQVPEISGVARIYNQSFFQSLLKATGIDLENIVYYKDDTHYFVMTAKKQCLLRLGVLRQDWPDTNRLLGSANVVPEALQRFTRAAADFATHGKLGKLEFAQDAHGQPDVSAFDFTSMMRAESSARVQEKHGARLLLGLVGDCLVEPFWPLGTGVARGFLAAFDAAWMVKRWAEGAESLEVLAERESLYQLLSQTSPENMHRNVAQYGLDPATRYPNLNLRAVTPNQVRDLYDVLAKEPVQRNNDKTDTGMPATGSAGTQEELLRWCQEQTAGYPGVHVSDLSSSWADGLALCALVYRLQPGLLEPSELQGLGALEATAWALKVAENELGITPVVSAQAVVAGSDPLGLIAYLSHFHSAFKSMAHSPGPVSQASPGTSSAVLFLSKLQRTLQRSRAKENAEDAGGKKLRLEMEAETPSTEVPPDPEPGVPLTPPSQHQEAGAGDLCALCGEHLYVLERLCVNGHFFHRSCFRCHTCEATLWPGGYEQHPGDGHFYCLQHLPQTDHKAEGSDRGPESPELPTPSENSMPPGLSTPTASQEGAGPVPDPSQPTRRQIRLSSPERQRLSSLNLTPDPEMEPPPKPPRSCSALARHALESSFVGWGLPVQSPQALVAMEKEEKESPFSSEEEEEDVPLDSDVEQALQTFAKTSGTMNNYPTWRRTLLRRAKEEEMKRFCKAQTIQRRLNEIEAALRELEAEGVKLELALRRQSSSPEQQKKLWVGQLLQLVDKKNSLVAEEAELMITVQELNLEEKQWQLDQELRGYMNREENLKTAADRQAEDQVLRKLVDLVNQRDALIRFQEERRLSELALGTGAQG
Nature of the test: ITC.

The next test addresses T6, bMERB_(M992A_I993A) (human, UniProt Q8TDZ2 918-1067, M992A | I993A).
T6 sequence: B1 chain with D43S, M75A, I76A
Description: ITC.

The target in the next test is T7, bMERB_(L1047A_F1050A) (human, UniProt Q8TDZ2 918-1067, L1047A | F1050A).
T7 sequence: B1 chain with D43S, L130A, F133A
Nature of the test: ITC.

The test “bMERB_(V978A_V985A)” has as its target B2. Nature of the test: ITC.
In test [8] the target is T8, Mical1 bMERB domain (residues 918-1067) (human, UniProt Q8TDZ2 918-1067).
T8 sequence: B1 chain with D43S
Nature of the test: ITC.

As for B1, the binding result (with Rab8a_(1-176) [1]; with Rab10_(1-175) [2]; with Rab15_(1-176) [3]; in test [4]) was “binds” each time.

Turning to B2, the binding result with Rab8a_(1-176) [5], with Rab10_(1-175) [6], with Rab13_(1-176) and with Rab15_(1-176) [7] was “binds” throughout.

For the molecule B3, the figures for the “stoichiometry N” value (with full-length Mical1; in the test with bMERB_(V978A_V985A); in test [8]) were 2, 1 and 2, respectively. The “fold decrease in N-terminal (Nt-RBS1) Rab binding against wild-type bMERB” value is > 30 fold with bMERB_(M992A_I993A) and 10 fold with bMERB_(L1047A_F1050A). The “fold decrease in C-terminal (Ct-RBS2) Rab8 binding against wild-type bMERB” value in the test with bMERB_(L1047A_F1050A) was > 20 fold.
